# Reference: paper PMC5526998, “Structural analysis of the regulatory mechanism of MarR protein Rv2887 in M. tuberculosis” (Scientific Reports, 2017)
# Molecular target: the molecule itself
# Test: crystal structure
protein,measurement,value
"MarR family protein Rv2887 (natural protein, also called MarR-like protein Rv2887; apo-Rv2887) MGLADDAPLGYLLYRVGAVLRPEVSAALSPLGLTLPEFVCLRMLSQSPGLSSAELARHASVTPQAMNTVLRKLEDAGAVARPASVSSGRSLPATLTARGRALAKRAEAVVRAADARVLARLTAPQQREFKRMLEKLGSD",binding result,binds
